Measurements taken from the DeepSol protein solubility set.

assay: soluble on expression in E. coli; label from the status in PepcDB or PDB records

| Sequence | soluble on expression in E. coli |
| --- | --- |
| MKIAYLGPKGSFSHHVVQTAFPHEELQAFANITDVIKAYEQGLVNYSVVPVENSIEGSVHETLDYLFHQAHIQAVAEIVQPIHQQLMVVPGHTKIEKIFSHPQALAQGKKFIDEQYPEAQIEVTASTAYAARFISEHPDQPFAAVAPRSSAEEYGLELIAEDIQEMEANFTRFWVLGAEKP | not soluble |
| MFKRLMMVALLVIAPLSAATAADQTNPYKLMDEAAQKTFDRLKNEQPQIRANPDYLRTIVDQELLPYVQVKYAGALVLGQYYKSATPAQRDAYFAAFREYLKQAYGQALAMYHGQTYQIAPEQPLGDKTIVPIRVTIIDPNGRPPVRLDFQWRKNSQTGNWQAYDMIAEGVSMITTKQNEWGTLLRTKGIDGLTAQLKSISQQKITLEEKK | not soluble |
| MSLIVSTIASHSSLQILLGAKKEGFKTRLYVSPKRRPFYSSLPIVDDLVVAEEMTSILNDDGIVVPHGSFVAYLGIEAIEKAKARFFGNRRFLKWETTFELQDKALEGAGIPRVEVVEPEDAKPDELYFVRIEGPRGGSGHFIVEGSELEERLSTLEEPYRVERFIPGVYLYVHFFYSPILERLELLGVDERVLIADGNARWPVKPLPYTIVGNRAIALRESLLPQLYDYGLAFVRTMRELEPPGVIGPFALHFAYDGSFKAIGIASRIDGGSNADHWYSELYWGERLSMGRRIARELRLAEEEDRLEEVVTEGHHHHHH | soluble |
| MRMKPYSELTREELLELKKDLSAQYHAFQGKDLKLDMSRGKPSVEQLDLSMGMMDVLNSDCDLTCEDGTDCRNYGVLDGIREAKELLGDMIEVPADNIIIYGNSSLNVMYDTISRSMTHGVMGNTPWCKLDKVKFLCPVPGYDRHFAITEYFGIEMVNVPMTEEGPDMDIVEELVSKDESIKGIWCVPKYSNPTGNSYSDQTVRRFARLKPAAADFRIYWDNAYSVHHLYDDDQDNLIEILAECKRAGNPDLAYKFSSTSKISFPGSGIAAVATSHNNLEDIKKQLRMQTIGHDKVNQLRHVRYFKNIHGMVEHMRKHAEILRPKFEAVEAILERELGGLGIGSWTSPKGGYFISFDSMDGCAKDIVAKCKKAGVVMTGAGATYPYGKDPHDSNIRIAPSYPPLQDLITATELFALCVKIVTVNKLLGATK | not soluble |
| MQKSSLISHRFSFCKVCGGKANGNHFGIQSCRACAAFFRRAANSKWSSMKCTTFGCADMLVPCKPCRLKRCQEQGMSTTNFQFDRDALKRLLVPKSVEKFVGRPESVIFCDMTESTSKTFIDIRPLIEKTSNILKNGAEGPIFGRNQLQKLANGFENYTNEISVKMIKKIGKSETADCWEYYITTTAKWLNYFNGFKLLSHELQVGKYVFFIEIFSK | not soluble |
| MTTPSMEMYIEQIYMLIEEKGYARVSDIAEALAVHPSSVTKMVQKLDKDEYLIYEKYRGLVLTSKGKKIGKRLVYRHELLEQFLRIIGVDEEKIYNDVEGIEHHLSWNSIDRIGDLVQYFEEDDARKKDLKSIQKKTEHHNQ | soluble |
| MAHHHHHHMKKAKGSMKRLREGAENGTGGRNSSMKRQKGSTTGALSFAITNNTVTLERKARRQPKVAERCEDDDDEEDVELSKAVQAQTLSFLQHLNSKSSKTFWELRDVAQGKLSAASATTATSSSSQLPSSSRTKAAKGNAKGAKKLADDGEELWRVGGPYISGDQADDTDESERECGRTSDSELQSSTSSSEPSWVTDSSEEEDGGGSDDEAESAPVAAGATSRRSAAEPPKRGGGGGRLFQGGGDGVWDED | soluble |
| MTESSLDLGVIGNCSFGALVDRQARVVWSCLPAFDGDPAFCSLLSPKGEGGDFAVELEDFESSEQHYLPNTAVLRTVLRDSKGGEVEVIDFAPRWRNNGRFYRPVSIIRQIRPLAGNPRIVVRARPLADWGGRLEHHHHHH | not soluble |
| MGSDKIHHHHHHNLKDSDRIFTNLYGRHDYRLKGAMARGDWHKTKEIILKGSDWILGELKTSGLRGRGGAGFPSGMKWGFMNKPFDGRPKYLVVNADEGEPGTCKDREIMRHDPHKLIEGCLIGGVAMGARAAYIYIRGEFYNEACILQEAINEAYKAGYLGKDCLGTGYNFDVFVHRGAGAYICGEETALIESLEGKQGKPRLKPPFPADIGLFGCPTTVTNVETVAVAPTICRRGGDWFASFGRERNRGTKLFCISGQVNNPCTVEEEMSVPLKDLIERHCGGVIGGWDNLLAIIPGGSSVPLMPKN | not soluble |
| MRAVAEQARVKTLRIQPRAMALPPDELAECARTAVNEALADLRSAMPSDAGPGVDPAAALEYLNQVQVEGLRTLELVTGALEQAMAQIRQTAAAHGTPAPHGLHRIVEEVQQTLAAVSRPPQEAPDDLEGTAEAAQGRVRAVAEPGGRIRSLTVQARAMRSPSQELAEHIVTAVNNALDDLQAKTRRETEIVEIDQRRLDELRESAMRQSAEFMRSVSDMINSIQPR | not soluble |
| MAAIDAALKAGEKILSIYEDPKSDFEIERKADNSPLTIADRKAHEAIVAILNETPFPVLSEEGKHMDYAVRRGWDTLWIVDPLDGTKEFIKRNGEFTVNIALVQNAVPVMGVIYVPVKKELYFAVEGTGAYKCSGIVGLEDEGVTLQQMIEKSERMPLADARDHFIAVASRSHLTPETETYIADLKKKHGNVELISSGSSIKICLVAEGKADVYPRFAPTMEWDTAAGHAIARAAGMEVYQAGKEEPLRYNKEDLLNPWFIVEAKRER | soluble |
| MEPSTIVKLDVGGKIFKTTIFTLCKHDSMLKTMFCTDVPVTKNEEGSVFIDRDSKHFRLILNFLRDGQIALPDSDREVREVLAEASYFLLDPLIELCGERLEQSLNPYYHLVSTVLEARKIIFATEKPIVVLRLPVYIATSGNQSYYFSETKFRELSEEYHKHVAFILITEPEFNEDCSWSFFLRAKKITARIKGPMDCNLVEECMPKTVERRREKKTWH | not soluble |
| MVHLAKYIVVTGGVVSSIGKGITAASIGRILRSYGLSVTAIKIDPYLNWDSGTLNPYQHGEVFVTDDGMETDLDLGHYERFLDSDLPGEANITTGKVYMSVINKERSGDYLGSCVQIIPHITDEIKSMIRKIADKSGAEVVLVEVGGTVGDIEGQPFLEALRQLRNEEGHENVMFVHVTYVPYLRAAGEFKTKPTQHSTKELRSTGINPDMIICRSEMPIDSSLKRKIAHFCDVEEEAVVNAPDASSIYEVPLVLDSERVGDYIVRRIELDVDGEADLSEWAGIVESLMIDEPVVTVGIVGKYVELEDSYISIREALKHAAAHLRVRVDIEWISADDAVNEEDLSRLDSILIPGGFGERGIAGKLEAVRFALENRVPIFGICLGMQCMVIEFARLNGMEGANSTEFDPETPYPVIDMMEEQKRIKNMGGTMRLGSYQCRIREGTLAHEAYGTELVGERHRHRFELNNEFREELESKGLIISGTSPDDFLVEMVEIKDHPWFLGCQFHPEFRSRPNRAHPLFVSFLRAALERSR | soluble |
| SKCIPYSVLLKDLEMRNLRELEDLIIEAVYTDIIQGKLDQRNQLLEVDFCIGRDIRKKDINNIVKTLHEWCDGCEAVLLGIEQQVLRANQYKENHNRTQQQVEAEVTNIKKTLKATASSSAQEMEQQLAERECPPHAEQRQPTKKMSKVKGLVSSRH | soluble |
| MSLTNSSNLIDGIEVYVLNNPKDVKPHWVSHFIVPTANELLIKIKTKNGNSGFGVATSYTDIKPIIKPFTNGLQDLVIGEDPFCPEKIYDKIFKLTDTRMSSEKGWSREALIRISAALDIACWDLIGKAANIPLYKLFGGYRNQIPVYVTCAYYRDGKDEIELRDELKKLIDIGHQSFKVKVGGLSIKEDAKRLETIRNEIGNQKDLMIDVNRAWDLKTAIEGVKEFKKFNPIWIEEPVRWEDDRRNLKLLSKQTDIPLSGGESEITIHGCRSMIEEEAIQILQFDCTMFGGFTNGKKLSALCEINHIDIAPHHDCYIHAPLVASSPSGRIVESFDDERDPIQSELFENQHKMSNGWIYLNENPGLGFDISEAALKKFGKLVYKKEGHHHHHH | soluble |
| MAHHHHHHMNYDKLNLFKENFDMMYVIEEIETHLHEKKHLLCDINENILISEKNKTSIDIYEKHLIEKQIQILKKNKINYKKLNNINYVKYFLPLCIQPKTNNTDKCLSERDVYMKNFKKKNILRELHVKKRLTEYRINQFIEKYTGKFLKNNVLHKQISKIYNNKSKIEIFIKGDNFSYNRVIGDIAFFDSKPNVLLENVKYIVRKRKKKKLNNIKKNINI | not soluble |
